# According to patent US20040058445A1:
# Target: MHC class I (framework determinant) on human tumor cells of patient 1C
substance,measurement,value
MAb w6/32 (antibody),inhibition of lysis of autologous 1C tumor cells in a 4-hour 51Cr release assay,5 % lysis
